Assays:
[1] = substrate: p-NP-C4; details: pH 6; 70 °C
[2] = Melting temperature [DSF / Thermofluor]; details: pH 8.5
[3] = substrate: pNPB; experiment: Proxy for plastic degradation [Residual activity]; details: pH 7
[4] = substrate: pNPB; experiment: Proxy for plastic degradation [Relative activity]; details: pH 7
[5] = substrate: pNPB; experiment: Proxy for plastic degradation [Specific activity]
[6] = substrate: PET; experiment: Proxy for plastic degradation [Released monomer concentration (HPLC/LC-MS) (TPA)]; details: pH 7
[7] = substrate: PET; experiment: Proxy for plastic degradation [Released monomer concentration (HPLC/LC-MS) (BHET)]; details: pH 7
[8] = substrate: BHET; experiment: Proxy for plastic degradation [Released monomer concentration (HPLC/LC-MS) (MHET)]; details: pH 7
[9] = substrate: PET; experiment: as above; details: pH 7
[10] = substrate: PET; experiment: Proxy for plastic degradation [Released monomer concentration (HPLC/LC-MS) (TPA+MHET+BHET)]; details: pH 7
[11] = substrate: PET; experiment: Proxy for plastic degradation [Released monomer concentration (HPLC/LC-MS) (TPA+MHET+BHET+Total aromatic products)]; details: pH 7, 0 h
[12] = 30 °C, 0 h, part of the chain shown
[13] = 30 °C, 48 h, part of the chain shown
[14] = 30 °C, 72 h, part of the chain shown
[15] = 30 °C, 96 h, part of the chain shown

B1: unnamed (protein)
chain: MKIVKTLLTVIFSVLMVVSMAHAVQIGPNPTSTLLNGDGPFAVSSSSVSSLACGTGCAGGTVYYPTTAGQYGVIAVCPGYTGTSSSIAWFARRLATHGFVTIAMDTNSTLDYPSSRATQLAAALRYLINSSSSTIRSRIRTADRGVAGHSMGGGGTLIASADDSTLRVGIPMTPWNTYTSFSSVRVPQMIFGADGDTIASASSHARPFYNSITQAEKAYALLNDASHFTPNSTDQRIGRYGVAFAKRFVDGDTRYNPFLCGAEHTAYATSSRFDTYLSNCPY
Km [1]: 80 µM
kcat [1]: 447 s⁻¹
kcat/Km [1]: 5.59e+06 M⁻¹ s⁻¹
Melting temperature [2]: 82 °C
Proxy for plastic degradation ([3]; 50 °C, 0 h): 100%
Proxy for plastic degradation ([3]; 50 °C, 0.33 h): 54%
Proxy for plastic degradation ([3]; 50 °C, 0.5 h): 38%
Proxy for plastic degradation ([3]; 50 °C, 1 h): 49%
Proxy for plastic degradation ([3]; 50 °C, 2 h): 57%
Proxy for plastic degradation ([3]; 50 °C, 3 h): 46%
Proxy for plastic degradation ([3]; 50 °C, 6 h): 65%
Proxy for plastic degradation ([3]; 50 °C, 24 h): 52%
Proxy for plastic degradation ([3]; 50 °C, 48 h): 55%
Proxy for plastic degradation ([3]; 50 °C, 72 h): 43%
Proxy for plastic degradation ([3]; 50 °C, 96 h): 30%
Proxy for plastic degradation ([3]; 70 °C, 0 h): 100%
Proxy for plastic degradation ([3]; 70 °C, 0.33 h): 54%
Proxy for plastic degradation ([3]; 70 °C, 0.5 h): 51%
Proxy for plastic degradation ([3]; 70 °C, 2 h): 70%
Proxy for plastic degradation ([3]; 70 °C, 3 h): 51%
Proxy for plastic degradation ([3]; 70 °C, 6 h): 50%
Proxy for plastic degradation ([3]; 70 °C, 24 h): 52%
Proxy for plastic degradation ([3]; 70 °C, 48 h): 47%
Proxy for plastic degradation ([3]; 70 °C, 72 h): 20%
Proxy for plastic degradation ([3]; 70 °C, 96 h): 17%
Proxy for plastic degradation ([4]; 50 °C, 0 h): 100%
Proxy for plastic degradation ([4]; 50 °C, 0.33 h): 55%
Proxy for plastic degradation ([4]; 50 °C, 0.5 h): 38%
Proxy for plastic degradation ([4]; 50 °C, 1 h): 50%
Proxy for plastic degradation ([4]; 50 °C, 2 h): 60%
Proxy for plastic degradation ([4]; 50 °C, 4 h): 48%
Proxy for plastic degradation ([4]; 50 °C, 6 h): 65%
Proxy for plastic degradation ([4]; 50 °C, 24 h): 50%
Proxy for plastic degradation ([4]; 50 °C, 48 h): 52%
Proxy for plastic degradation ([4]; 50 °C, 72 h): 40%
Proxy for plastic degradation ([4]; 50 °C, 96 h): 35%
Proxy for plastic degradation ([4]; 70 °C, 0 h): 100%
Proxy for plastic degradation ([4]; 70 °C, 0.33 h): 55%
Proxy for plastic degradation ([4]; 70 °C, 0.5 h): 52%
Proxy for plastic degradation ([4]; 70 °C, 1 h): 50%
Proxy for plastic degradation ([4]; 70 °C, 2 h): 70%
Proxy for plastic degradation ([4]; 70 °C, 4 h): 50%
Proxy for plastic degradation ([4]; 70 °C, 6 h): 48%
Proxy for plastic degradation ([4]; 70 °C, 24 h): 50%
Proxy for plastic degradation ([4]; 70 °C, 48 h): 40%
Proxy for plastic degradation ([4]; 70 °C, 72 h): 20%
Proxy for plastic degradation ([4]; 70 °C, 96 h): 18%
Proxy for plastic degradation ([5]; pH 4): 0 U/mg
Proxy for plastic degradation ([5]; pH 5): 225 U/mg
Proxy for plastic degradation ([5]; pH 7): 200 U/mg
Proxy for plastic degradation ([5]; pH 7, 50 °C): 500 U/mg
Proxy for plastic degradation ([5]; pH 9): 150 U/mg
Proxy for plastic degradation ([5]; pH 10): 75 U/mg
Proxy for plastic degradation ([6]; 30 °C, 0 h): 0 µM
Proxy for plastic degradation ([6]; 50 °C, 0 h): 0 µM
Proxy for plastic degradation ([6]; 50 °C, 48 h): 140 µM
Proxy for plastic degradation ([6]; 50 °C, 96 h): 330 µM
Proxy for plastic degradation ([6]; 70 °C, 0 h): 0 µM
Proxy for plastic degradation ([6]; 70 °C, 24 h): 180 µM
Proxy for plastic degradation ([7]; 30 °C, 0 h): 0 µM
Proxy for plastic degradation ([7]; 50 °C, 0 h): 0 µM
Proxy for plastic degradation ([7]; 50 °C, 48 h): 10 µM
Proxy for plastic degradation ([7]; 70 °C, 0 h): 0 µM
Proxy for plastic degradation ([7]; 70 °C, 24 h): 5 µM
Proxy for plastic degradation ([7]; 70 °C, 48 h): 3 µM
Proxy for plastic degradation ([7]; 70 °C, 72 h): 2 µM
Proxy for plastic degradation ([8]; 30 °C, 0 h): 0 µM
Proxy for plastic degradation ([8]; 30 °C, 40 h): 4 µM
Proxy for plastic degradation ([8]; 30 °C, 60 h): 5 µM
Proxy for plastic degradation ([8]; 50 °C, 0 h): 0 µM
Proxy for plastic degradation ([8]; 70 °C, 0 h): 0 µM
Proxy for plastic degradation ([9]; 30 °C, 0 h): 0 µM
Proxy for plastic degradation ([9]; 30 °C, 24 h): 240 µM
Proxy for plastic degradation ([9]; 50 °C, 0 h): 0 µM
Proxy for plastic degradation ([9]; 70 °C, 0 h): 0 µM
Proxy for plastic degradation ([9]; 70 °C, 24 h): 180 µM
Proxy for plastic degradation ([10]; 30 °C, 0 h): 0 µM
Proxy for plastic degradation ([10]; 30 °C, 24 h): 320 µM
Proxy for plastic degradation ([10]; 30 °C, 48 h): 380 µM
Proxy for plastic degradation ([10]; 30 °C, 72 h): 390 µM
Proxy for plastic degradation ([10]; 30 °C, 96 h): 400 µM
Proxy for plastic degradation ([10]; 50 °C, 0 h): 0 µM
Proxy for plastic degradation ([10]; 50 °C, 24 h): 500 µM
Proxy for plastic degradation ([10]; 50 °C, 48 h): 620 µM
Proxy for plastic degradation ([10]; 50 °C, 72 h): 630 µM
Proxy for plastic degradation ([10]; 50 °C, 96 h): 700 µM
Proxy for plastic degradation ([10]; 70 °C, 0 h): 0 µM
Proxy for plastic degradation ([10]; 70 °C, 24 h): 370 µM
Proxy for plastic degradation ([10]; 70 °C, 48 h): 410 µM
Proxy for plastic degradation ([10]; 70 °C, 72 h): 405 µM
Proxy for plastic degradation ([10]; 70 °C, 96 h): 410 µM
Proxy for plastic degradation ([11]; 30 °C): 0 µM
Proxy for plastic degradation ([11]; 50 °C): 0 µM
Proxy for plastic degradation ([11]; 70 °C): 0 µM

B2: unnamed (protein)
chain: MNFPRASRLMQAAVLGGLMAVSAAATAQTNPYARGPNPTAASLEASAGPFTVRSFTVSRPSGYGAGTVYYPTNAGGTVGAIAIVPGYTARQSSIKWWGPRLASHGFVVITIDTNSTLDQPSSRSSQQMAALRQVASLNGTSSSPIYGKVDTARMGVMGWSMGGGGSLISAANNPSLKAAAPQAPWDSSTNFSSVTVPTLIFACENDSIAPVNSSALPIYDSMSRNAKQFLEINGGSHSCANSGNSNQALIGKKGVAWMKRFMDNDTRYSTFACENPNSTRVSDFRTANCS
Proxy for plastic degradation [6, 12]: 0 µM
Proxy for plastic degradation [6, 13]: 60 µM
Proxy for plastic degradation [7, 12]: 0 µM
Proxy for plastic degradation [7, 14]: 26 µM
Proxy for plastic degradation [8, 12]: 0 µM
Proxy for plastic degradation ([8]; 30 °C, 20 h, part of the chain shown): 12 µM
Proxy for plastic degradation ([8]; 30 °C, 40 h, part of the chain shown): 19 µM
Proxy for plastic degradation ([8]; 30 °C, 60 h, part of the chain shown): 24 µM
Proxy for plastic degradation ([8]; 50 °C, 0 h, part of the chain shown): 0 µM
Proxy for plastic degradation ([8]; 50 °C, 40 h, part of the chain shown): 5.9 µM
Proxy for plastic degradation ([8]; 50 °C, 60 h, part of the chain shown): 5.6 µM
Proxy for plastic degradation ([8]; 70 °C, 0 h, part of the chain shown): 0 µM
Proxy for plastic degradation ([8]; 70 °C, 20 h, part of the chain shown): 2.3 µM
Proxy for plastic degradation ([8]; 70 °C, 40 h, part of the chain shown): 3 µM
Proxy for plastic degradation ([8]; 70 °C, 60 h, part of the chain shown): 1.85 µM
Proxy for plastic degradation ([8]; part of the chain shown): 4 µM
Proxy for plastic degradation [9, 12]: 0 µM
Proxy for plastic degradation [9, 13]: 505 µM
Proxy for plastic degradation [9, 15]: 460 µM
Proxy for plastic degradation [10, 12]: 0 µM
Proxy for plastic degradation ([10]; 30 °C, 24 h, part of the chain shown): 580 µM
Proxy for plastic degradation [10, 13]: 590 µM
Proxy for plastic degradation [10, 14]: 600 µM
Proxy for plastic degradation [10, 15]: 520 µM

B3: unnamed (protein)
chain: MQTNPYARGPNPTAASLEASAGPFTVRSFTVSRPSGYGAGTVYYPTNAGGTVGAIAIVPGYTARQSSIKWWGPRLASHGFVVITIDTNSTLDQPSSRSSQQMAALRQVASLNGTSSSPIYGKVDTARMGVMGWSMGGGGSLISAANNPSLKAAAPQAPWDSSTNFSSVTVPTLIFACENDSIAPVNSSALPIYDSMSRNAKQFLEINGGSHSCANSGNSNQALIGKKGVAWMKRFMDNDTRYSTFACENPNSTRVSDFRTANCSLEHHHHHH
Proxy for plastic degradation ([8]; 30 °C, 0 h): 0 µM
Proxy for plastic degradation ([8]; 30 °C, 20 h): 12 µM
Proxy for plastic degradation ([8]; 30 °C, 40 h): 20 µM
Proxy for plastic degradation ([8]; 30 °C, 60 h): 25 µM
Proxy for plastic degradation ([8]; 50 °C, 0 h): 0 µM
Proxy for plastic degradation ([8]; 50 °C, 20 h): 5 µM
Proxy for plastic degradation ([8]; 50 °C, 40 h): 5.5 µM
Proxy for plastic degradation ([8]; 50 °C, 60 h): 5.5 µM
Proxy for plastic degradation ([8]; 70 °C, 0 h): 0 µM
Proxy for plastic degradation ([8]; 70 °C, 20 h): 2.5 µM
Proxy for plastic degradation ([8]; 70 °C, 40 h): 3 µM
Proxy for plastic degradation ([8]; 70 °C, 60 h): 2 µM
Proxy for plastic degradation ([11]; 30 °C): 0 µM

From the PETadex activity labels (doi:10.3390/ijms25158120)
